In patent US20210292393A1 (published 2021):
Positions count from the first letter of the chain named.

B1: antibody 497 (antibody, V domains shown)
VH: QVQLQESGPGLVKPSQTLSLTCTVSGGSINSFGYYWSWIRQHPGKGLEWIGYIYYSGSTDYNPSLNSRVTISLDTSKNQFLLKLTSVTAADTAVYYCAKLTDYYDSSGYSFDYWGQGTLVTVSS
VL: DIQMTQSPSSVSASVGDRVTITCRASQDISRWLAWYQQKPGKAPKLLIYAASSLQSGVPSRFSGRGSGTELTLTISSLQPEDFATYFCQQAYSFPFTFGGGTKVEIK
B2: antibody 492 (antibody, V domains shown)
VH: QVQLVESGGGVVQPGRSLRLSCAASGFTFSSYGMHWVRQAPGKGLEWVAVISYDGSNKYYADSVKGRFTISRDNSKNTLYLQMNSLRAEDTAVYYCAKDGILWWWWGYFDYWGQGTLVTVSS
VL: QSVLTQPPSVSGAPGQRVTISCTGSSSNIGAGFDVHWYQQLPGTAPKLLIYGNSNRPSGVPDRFSGSKSGTSASLAITGLQAEDEADYYCQSYDSSLSVVFGGGTKLTVL
B3: antibody 496 (antibody, V domains shown)
VH: QVQLVQSGAEVKKPGASVKVSCKASGYTFTDYYIHWVRQAPGQGLEWMGWINPNSGGTNYAQKFQGRLTMTRDTSISTAYMELSRLRSDDTAVYYCARVYSMFREFIINPYYYYYGLDVWGQGTTVTVSS
VL: QSALTQPASVSGSPRQSITISCTGTSSDVGSYNLVSWYQQHPGKAPKLMIYEGSKRPSGVSNRFSGSKSGNTASLAISGLQAEDEANYYCCSYAGSSTLVFGGGTKLTVL
B4: antibody 509 (antibody, V domains shown)
VH: QVQLVESGGGVVQPGRSLRLSCAASGFNLSSYAMHWVRQASGKGLEWVSLISYDGSIKYYTDSVKGRFTVSGDNSKNTLFLQMNSLRADDSALYYCVRGGVSGPNSFDLWGQGTTVTVSS
VL: DVVMTQSPLSLPVTLGQPASISCRSSQSLVYSDGNTYVNWFQQRPGQSPRRLIYKVSIRASGVPDRFSGSGSGTDFALKISRVEAEDVGVYYCMQGTHWPVTFGQGTKVEIK
B5: antibody 517 (antibody, V domains shown)
VH: B4 VH with S31N, L109M
VL: B4 VL with K55Q
B6: antibody 510 (antibody, V domains shown)
VH: QVQLQESGPGLVKPSQTLSLTCTVSGGSISSGSYYWSWIRQPAGKGLEWIGRIYTSGSTNYNPSLKSRVTISVDTSKNQFSLKLSSVTAADTAVYYCAREGQWLYRFDYWGQGTLVTVSS
VL: QSALTQPASVSGSPGQSITISCTGTSSDVGNYDLVSWYQQHPGKAPKLVIYGVTKRPSGVSNRFSGSKSGNTASLTISGLQAEDEADYYCCSYATGDTSVFGTGTKVTVL
B7: antibody 504 (antibody, V domains shown)
VH: QVQLVESGGGVVQPGRSLRLSCAASGFTFSSYGMHWVRQAPGKGLEWVAVISYDGSNKYYADSVKGRFTISRDNSKNTLYLQMNSLRAEDTAVYYCAKGGGGGYCSGGSCYSHYFDYWGQGTLVTVSS
VL: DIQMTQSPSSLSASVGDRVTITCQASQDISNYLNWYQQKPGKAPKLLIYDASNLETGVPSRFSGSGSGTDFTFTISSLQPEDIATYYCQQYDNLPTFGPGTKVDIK
B8: antibody 514 (antibody, V domains shown)
VH: EVQLVQSGAEVKKPGATVKISCKVSGYTFTDYYMHWVQQAPGKGLEWMGLVDPEDGETIYAEKFQGRVTITADTSTDTAYMELSSLRSEDTAVYYCATDCKYDILTGHYSAGYYYYGMDVWGQGTTVTVSS
VL: DIQMTQSPSSLSASVGDRVTITCRASQGISNYLAWFQQKPGKAPKSLIYAASSLQSGVPSKFSGSGSGTDFTLTISSLQPEDFATYYCQQYNSYPFTFGGGTKVEIK
B9: antibody 333 (antibody, V domains shown)
VH: QVHLVESGGGVVLPGRSLRLSCSASQFIFSNYDMHWVRQSPGMGLEWVAGISSDGSDKYYIDSVRGRFTISRDNAKNTLFLQMNSLTTEDTAVYSCAKGGGKFGQYWGRGTLVTVSS
VL: AIQMTQSPSSLSASVGDRVTITCRASQVIRNDLAWFQQKPGEAPNLLVYSASNLQSGVPSRFSGSGSGTDFTLTISSLQPEDFATYYCLQDYSYPYTFGQGTKLDMK
B10: antibody 363 (antibody, V domains shown)
VH: EVQLLESGGGLVQPGGSLRLSCAASGFTFSTYAMSWVRQAPGKGLEWVSAISGSGGSTYYADSVKGRFTISRDNSKNTLYLQMNSLRAEDTAVYYCASGYSPDYWGQGTLVTVSS
VL: not shown
B11: antibody 366 (antibody, V domains shown)
VH: QVQLVESGGGVVQPGRSLRLSCAASGFTFSSYAMHWVRQAPGKGLEWVAVISYDGSNKYYADSVKGRFTISRDNSKNTLYLQMNSLRAEDTAVYYCARGLVGYNWFDPWGQGTLVTVSS
VL: DIQMTQSPSSVSASVGDRVTITCRASQGISSWLAWYQQKPGKAPKLLIYAASSLQSGVPSRFSGSGSGTDFTLTISSLQPEDFATYYCQQANSFTFGPGTKVDIK
B12: antibody 367 (antibody, V domains shown)
VH: QVQLVQSGAEVKKPGASVKVSCKASGYTFTGYYIHWVRQAPGQGLEWMGWINPNSGGTIYAQKFQGRVTMTRDTSISTAYMELSRLTSDDTAVYSCAREPYYDILTGYYAPRRYFDYWGQGTLVTVSS
VL: QSALTQPASVSGSPGQSITISCTGTSSDVGSYNYVSWYLQHPGKAPKLMIYDVSNRPSGVSNRFSGSKSGNTASLTISGLQAEDEADFYCSSYTSRSTYVFGTGTKVTVL
B13: antibody 340 (antibody, V domains shown)
VH: QVQLVQSGAEVKKPGASVKVSCKASGYTFTSYDINWVRQATGQGLEWMGWMNPNSGNTGYAQKFQGRVTMTRNTSISTAYMELSSLRSEDTAVYYCARGRYCTGGVCWGDWYFDLWGRGTLVTVSS
VL: QSVLTQPPSVSGAPGQRVTISCTGSSSNIGAGYDVHWYQQLPGTAPKFLIYGNSNRPSGVPDRFSGSKSGTSASLAITGLQAEDEADYYCQSYDSSLSGPVFGGGTKLTVL
B14: antibody 345 (antibody, V domains shown)
VH: QVQLQESGPGLVKPSQTLSLTCTVSGGSISSGDYYWSWIRQPPGKGLEWIGYIYYSGSTYYNPSLKSRVTISVDTSKNQFSLKLSSVTAADTAVYYCARVGMVDNWNFEGNWFDPWGQGTLVTVSS
VL: QSALTQPRSVSGSPGQSVTISCTGTSSDVGGYNYVSWYQQHPGKAPKLMIYDVSKRPSGVPDRFSGSKSGNTASLTISGLQAEDEADYYCCSYAGSVVFGGGTKLTVL
B15: antibody 378 (antibody, V domains shown)
VH: QVQLVQSGAEVKKPGASVKVSCKASGYTFTSYYMHWVRQAPGQGLEWMGIINPSGGSTSYAQKFQGRVTMTRDTSTSTVYMELSSLRSEDTAVYYCARDSGGMDDFWSGYYSPGGDYWGQGTLVTVSS
VL: B3 VL with R15G, A76T, N87D, L99W
B16: antibody 351 (antibody, V domains shown)
VH: HVQLVESGGGVVQPGRSLRLSCAASGFISRNYGMEWVRQAPGQGLEWVAGIWYDGSKKYYADSVKGRFTISRDTSKNTLFLQMDSLRAEDTAVFYCATATKTFCGGDCPPGGMDVWGQGTTVTVST
VL: SYVLTQPPSVSVAPGKTAWITCVGNNIESESVHWYQQRPGQAPVLVIYYDSDRPSGIPERFFGSNSGNTATLTISRVEAGDEADYYCQVWDSNSDLMVFGGGTKLTVL
B17: antibody 380 (antibody, V domains shown)
VH: QVQLVESGGGVVQPGRSLRLSCAASGFTLKNYGMHWVRQAPGKGLEWVIVLSFDGSDEYKADSVRGRFTVSRDNSKNTLFLQMNSLRPDDTAVYYCAREQPTMIEGGRGPFDIWGQGTMVTVSS
VL: EVVMTQSPATLSVSPGDRATLSCRASQGVNSNLAWYQQKPGQAPRLLIYAASTRATGIPARFSASGSGTHFTLTISSLQSEDFAVYYCLQYNNWPPWTFGQGTKLEIK
B18: antibody 343 (antibody, V domains shown)
VH: QVQLVESGGDVVQPGTSLRLSCAASGFTFNNYGFHWVRQAPGKGLEWVALISSDGASTHYADSVKGRFTISRDSSVNTLYLQMNSLSLEDTAVYYCATGHCGTTCYYFDYWGQGTLVSVSS
VL: DIQVTQSPSYLSASVGDRVTITCRASQTISTFLQWYQQKVGKAPKLLIYAASTLQSGVPSRFSGSGSGTDFSLTISSLQPEDFATYYCQQSYSAPLSFGGGTKVEIK
B19: antibody 372 (antibody, V domains shown)
VH: QVQLVESGGGVVQPGRSLRLSCAASGFTFSSYAMHWVRQAPGKGLEWVAVISYDGSNKYYADSVKGRFTISRDNSKNTLYLQMNSLRAEDTAVYYCARDLGTSALLWFGELFLNYGMDVWGQGTTVTVSS
VL: QSALTQPRSVSGSPGQSVTISCTGTSSDVGGYNYVSWYQQHPGKAPKLMIYDVSKRPSGVPDRFSGSKSGNTASLTISGLQAEDEADYYCCSYAGSPILVFGGGTKLTVL
B20: antibody 348 (antibody, V domains shown)
VH: QVQLVQSGSELKKPGASVKVSCKASGYTFTSYAMNWVRQAPGQGLEWMGWINTNTGNPTYAQGFTGRFVFSLDTSVSTAYLQISSLKAEDTAVYYCARDHELPNTSSWFGHFEYWGQGTLVTVSS
VL: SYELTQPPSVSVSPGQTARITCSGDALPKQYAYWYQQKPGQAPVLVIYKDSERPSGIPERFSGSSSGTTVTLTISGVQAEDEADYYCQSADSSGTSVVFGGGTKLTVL
B21: antibody 344 (antibody, V domains shown)
VH: QVQLVESGGGVVQPGRSLRLSCAASGFTFSSYAMHWVRQAPGKGLEWMAVISYDGSNKYYADSVKGRFTISRDNSKNTLYLQMNSLRAEDTAVYFCAKGYSGSYYEPFDYWGQGTLVTVSS
VL: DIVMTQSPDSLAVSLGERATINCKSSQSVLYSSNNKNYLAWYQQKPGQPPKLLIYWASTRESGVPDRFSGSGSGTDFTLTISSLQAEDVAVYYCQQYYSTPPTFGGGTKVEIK
B22: antibody 331 (antibody, V domains shown)
V domain 1: QITLKESGPTLVKPTETLTLTCSFSGFSLTKTGEAAGWIRQAPGRALEWVTVIFWDDDKRYSPSLQNRISVTKDTSKNQVVLRMTNVARFDTGTYFCWAMGGPGKEYFGQGTLVAVSS
V domain 2: QSVLTQPPSVSGAPGQRVTISCTGTSSSIGPYSDVHWYQHVSGKAPRLLIFGNSNRPSGVPDRFSGSKSGTSASLVIAGLQAEDEADYYCQSYDSSLGEIYVFGTGTTVTVL
B23: antibody 339 (antibody, V domains shown)
V domain 1: B22 V domain 1 with K31R, N67S, I69L, S70T, R83T, G93A, L113Q
V domain 2: B22 V domain 2

biological target: SARS-CoV-2 full length spike protein, wild type, expressed on the surface of CHO cells (SARS-CoV-2, UniProt P0DTC2 14-1273)

Compared with B1, B2 is lower in “median fluorescence fold over isotype control” value: 28.3 fold over isotype for the first, 9.25 fold over isotype for the second.

Going from B3 to B4, the “median fluorescence fold over isotype control” value falls from 19.7 fold over isotype to 10.2 fold over isotype.

First: B5
Second: B6
The “median fluorescence fold over isotype control” value of the first is higher: 10.3 fold over isotype for the first, 1.18 fold over isotype for the second.

First: B7
Second: B8
The “median fluorescence fold over isotype control” value of the first is higher: 2.78 fold over isotype for the first, 1.04 fold over isotype for the second.

biological target: SARS-CoV-2 spike (S) protein, full length, wild type, expressed on the surface of CHO cells (SARS-CoV-2, UniProt P0DTC2 14-1273)

Compared with B9, B10 is higher in “median fluorescence fold over isotype” value: 1.27 fold over isotype for the first, 16.8 fold over isotype for the second.

Compared with B11, B12 is higher in “median fluorescence fold over isotype” value: 8.97 fold over isotype for the first, 26.5 fold over isotype for the second.

Compared with B13, B14 is lower in “median fluorescence fold over isotype” value: 33.2 fold over isotype for the first, 11.7 fold over isotype for the second.

Going from B15 to B16, the “median fluorescence fold over isotype” value falls from 25.3 fold over isotype to 1.06 fold over isotype.

First: B17
Second: B18
The “median fluorescence fold over isotype” value of the first is lower: 1.06 fold over isotype for the first, 1.12 fold over isotype for the second.

Compared with B19, B20 is lower in “median fluorescence fold over isotype” value: 30.2 fold over isotype for the first, 19.6 fold over isotype for the second.

First: B21
Second: B22
The “median fluorescence fold over isotype” value of the first is lower: 7.55 fold over isotype for the first, 20.1 fold over isotype for the second.

With B23 the “median fluorescence fold over isotype” value was 21.2 fold over isotype.
